Data from publication PMC7855779.
Like-named read-outs stand apart in the source and are kept apart here.

Tests used:
[1] = target: MD2 (Homo sapiens) (UniProt Q9Y6Y9); conditions: cited from earlier work
[2] = target: MD2-TLR4 complex (rat (endogenous in NRK-52E)) (UniProt Q9QX05)
[3] = target: MD2-TLR4 complex (rat (endogenous in NRK-52E)) (UniProt Q9QX05); remark: listed apart in the source
[4] = target: MD2 (Homo sapiens) (UniProt Q9Y6Y9); conditions: cited from earlier work; remark: listed apart in the source

Sequence of UniProt Q9QX05 (Q9QX05 whole entry, looked up, one chain of several): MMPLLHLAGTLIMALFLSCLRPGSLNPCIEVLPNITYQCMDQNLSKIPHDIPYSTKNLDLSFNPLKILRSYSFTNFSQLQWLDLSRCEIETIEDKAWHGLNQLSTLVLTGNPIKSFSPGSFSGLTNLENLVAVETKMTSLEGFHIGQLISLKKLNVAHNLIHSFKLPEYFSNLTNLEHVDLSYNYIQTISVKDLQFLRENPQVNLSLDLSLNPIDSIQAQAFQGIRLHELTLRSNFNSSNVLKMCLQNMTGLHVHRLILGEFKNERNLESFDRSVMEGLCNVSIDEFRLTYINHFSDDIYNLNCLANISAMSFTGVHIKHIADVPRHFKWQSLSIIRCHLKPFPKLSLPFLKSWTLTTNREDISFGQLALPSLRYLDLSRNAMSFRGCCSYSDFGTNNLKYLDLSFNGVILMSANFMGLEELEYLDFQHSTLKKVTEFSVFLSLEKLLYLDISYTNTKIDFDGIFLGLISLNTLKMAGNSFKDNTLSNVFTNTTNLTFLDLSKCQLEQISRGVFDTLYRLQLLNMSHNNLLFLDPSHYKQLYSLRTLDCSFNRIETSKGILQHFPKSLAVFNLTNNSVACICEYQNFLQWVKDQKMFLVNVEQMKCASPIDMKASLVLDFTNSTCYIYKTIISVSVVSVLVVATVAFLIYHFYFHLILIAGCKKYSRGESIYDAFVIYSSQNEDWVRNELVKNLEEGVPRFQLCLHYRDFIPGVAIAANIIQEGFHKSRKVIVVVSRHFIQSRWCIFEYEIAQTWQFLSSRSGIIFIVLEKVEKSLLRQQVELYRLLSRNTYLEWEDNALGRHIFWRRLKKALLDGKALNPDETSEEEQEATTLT
Sequence of UniProt Q9Y6Y9 (Q9Y6Y9 19-160): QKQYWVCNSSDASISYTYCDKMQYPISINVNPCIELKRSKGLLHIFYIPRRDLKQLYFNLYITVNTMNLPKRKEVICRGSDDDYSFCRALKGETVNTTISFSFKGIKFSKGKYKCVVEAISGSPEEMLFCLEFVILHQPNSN

Angiotensin II (from UniProt P01019)
Kd [1]: 200 µM

Angiotensin II (peptide)
IL-6 content of the media of NRK-52E cells (ELISA), Ang II 1 μM against control [2]: 15 pg/mL
IL-6 content of the media of NRK-52E cells (ELISA), Ang II 1 μM against control [3]: 61 pg/mL

HMGB1 (from UniProt P09429)
Kd [4]: 0.6 µM
